# Assay: soluble on expression in E. coli; label from the status in PepcDB or PDB records
row,Sequence,soluble on expression in E. coli
1,GPGSMFVEDKGLISEANLRALHVGTLKLHLFLQEWILPVSFSEKYGYKKEVLEEIIERYGSGSAAEARWTFEQLLGECEVPGQISWLEEHISEDIPYFYIADLFDSWCNLHRNLFVCSADAHETAKRSDDRFESELLCKGVIEKAISGVLPYDTAVRALCILAIGCRTNTQFMLKTIKPDFIINRYKLYTDDLAQPIDGNTDVTPLAEVNAATIGLLNALNTELQEQEKLKLWKSSTARKLPLLMQLNATPWCDSVDSLRRGLKGITSNNAATLLEEATQYFRCSELSK,not soluble
2,GPGSMHFPSIVFRRHGGRQWMQQQSRDPFVLEARRRGYVARSAFKLLEMDDKFTLFSRGNTRVVVDIGCSPGSWLQVIRERCGDKCAVFGVDVLRVASTVTGAVCIQGDFTNPAVREELLARMVTVRAAGVVDVVTSDMCLNRGTGSTSDRQKQEELNRSALAFALEQLVPGGNFVCKVLGSPTAYEELRRDTCRWFVRTDICKPSSSRLTSDEAFMVCRGKREIPRDRSGGCDGTYGGRFGLDDWPGQLRGSPRRRKP,not soluble
3,GPGSMIPGLPPAFDVECNRMEDVFASVKSRTVGKDGNLLSPEESWVQRELQYYENLYTEQQELTVCLVTFNVACKKPPANLAALISLKMAEDTNRPVDLIMVSLQEVDMSASAMLKEETEASTPWVVGLHAAVGADSRSPSNTPYFAFPPKQLVGLLLCVYLRRQLLPYMQEMSVATVATGALGSMGNKGAIGLRLVLHRTSLCLINVHLAAGQSNVVKT,not soluble
4,GPGSMITDSHIMRLVTDGRMEMFPAVPPPSADGNGVVMLSCYQRGPLLPPTPPRPSSGRNDRIMWDSWQTRPVPQYRGNPETKTQRGVADWQHVPFACPFLRPVVTDVDRAVRGGNATRWLPTPFVGPQVFTVKDKSAGGVLVEQKEAPSSSTS,not soluble
5,GPGSMKVGNRDYDPCVKVSLELESLLQHHFQQRQHSKRILKDRLRKAELEIAYLQQSVSAYSEELRVERLKFDTLQRTMEDSKRNHAAELMEQDKIIRDRMCNVDTQARLLVVKTEECERRAQCLQKQEEELLNREKELRFYQASFEAGIMPAQRQIEAERVRMLRAREKAEELLEEARISALATEERRKKLEALHNLEMQFFALEKEEATQRIQIMRQEIFGLVGLISFRRTHVSAAEGDAAKRIRLLEEELASKKEVFELREKEVYLRYQREEQRMRDERKRIISIKEAMRQDYRLVLEGIRLFGNEYSTEPDQLQVDALKDLEKLLFSALDDHQLEITKKL,soluble
6,GPGSMLAAVAVPSSSSSTAPGTNTAVSDYFLQKIHELRATQKRTLDNFERLEAQRNDLNRRVRHLKEEVQMLQESGSLVVDVVRVMGKNKVLVKAGSGQGKMVVDVDKSVDFKDLTPNARVALRSGTSAIHYILPTKVDPLVSLMKVEKAGKESTYDEIGGLSRQVKEIKEVIELPVKHPKLFEALGIEQPKGVLLYGPPGTGKTLLARAVAHHTDCTFIRVSGAELVQKYIGEGARMVRELFVMAREHSPSIIFMDEIDSIGSSRLESGENGDSEVQRTMLELLNQLDGFEASKNIKVIMATNRMDILDEALLRPGRIDRKIEFPAPDEAARFEILKIHSRKMNLTRGIDLKDIAKKTSNCSGAELKAVCTEAGMFALRERRVHITHEDFVLAVAKVMHKDQDKNVSLKKMWK,not soluble
7,GPGSMLRAACCVLSGFPASVSRLFFLSWISLVDTALSFPPPRQTEIAPTRVWAGEGGGGGITALQAVTCPSHSTTCAACAGAGQHPPPPCQPPCRCVRVRVCVVHALLLPPPPSLAILLSCAQTTSTSLPPCFRRQSRARPPPHTHTHIHKHRASCAHHLSLPLLPHMSTAADRQAFLRLMGLTDADVTDPDHQPCAMLHSQTSSSHNVTDKVHRGVKYNSPTASSVAGLSHSASLGGDAIQFSLMNTTNTLRDTSPIVASGPSSSSSRPLFSAPRSVHWEEESIATTSHSSQLPQRAGASGCTAAAISEELKDVGNRSFEAGAFREAVQHYTAAIDALAASTTHSSAEVLLLSALYSNRSAAYLQAAHQMPSVEDAYARALCDADRTVSLRTSWFKGYARQGDAYFKLKRYGAAAEAYEMALQLDPRNKTLMNALSESRQRARHAAREELELRRTMRSTTSTTSSLASSMTGQAGSSTWSEGDPRGGAAASQQAQTLSDVYDGGRRRSGQAQQLWAALKHEVEATVHEVTGDAYRLQQLERFRARCSKGATPTARQAAERKTYVKGVTALASGAPASEPMREASVSGSRFSTATRPDVDVSTAAAAAAAERRHVSSVSPFAATALSSEPHLPPRRRSSASAAFDGPVKNARDVPYEFSSAAASAYQQRLLEEFRKRKATKQ,not soluble
8,GPGSMLRRSYATLRRKASVVLKGQLNPLEALTQIQLGMTPSLPIQRGFLLEHCERQLESLGITEGKLLAMDGRLCTQLTKRIVYELYLSVPFRVFTFDMEFTGPPVFTADGPTEDITELGLYSPLLDETFSCLVRPVCGRKQGPGVEELTHITDMMLEREGIPFVEAWQQFLKFVQTPQPDEISGSEERILLLSHGGKLADVSLIKWTLEKFHMELPPSFVFGDTIHLIRDAHRRRPVTIDKHPPSWKLADLVQWLHIPPTLPAHRAGNDARMTWDALYHTLLRYGDDGMTPREQLVPRFFDAEAKQLLREHTARQAQERAALSLDGTFLLADAKQSTSAGHADSSSIGYSVYRSASDGSGKPGKSGAATDLLDLDFDDIFSEQNKVSASAPIEEFKLDDDDDLHSISAGATSFTASRTLSSTTTSRTADLSVDPAEDDNAVSDVNAASTSTVSPARAAKTATSGGRKGKASGSSRSKEAVEKRNKRRVSAGDDDGGETSDPPAAATRAVFLV,soluble
9,GPGSMLRRTDRCGQRKVEKLLVANRGEIACRVFRTCREMHIRTVALFCEAERNAKHVVEADEAVCIGPPPAVNSYLRGDHIISVAKQLNVDAIHPGYGFLSENADFAEAVTRSGIEFIGPPASAISLMGSKSESKRIMEAAGVPVVPGYYGENQNVSFLAEEANRVGFPILIKAVSGGGGKGMKIVERPEDFAFMLESAKREAANFFKDDRVILERYVKRPRHIECQIFFDKHGRGVFFFERDCSVQRRYQKVLEEAPAPHLSMEMRQRIGEVALQAAKAVGYVGAGTVEFIFDTSTGDFYFMEMNTRLQVEHPVTEEVCRIKGAPLDLVKLQIKTAMGKPLTFSQEDVALVGSCIEARVYAESPERGFLPESGPLTFIREPFQGVRGPTRTRLDTGFCEGDNVLIHYDPMLAKVISWGRNREDALKGLRQALGEYKVAGINTNIEFLKRCCEAPEFARGGVTTNFISEHEKQLLNAPAVTPKVAAMAATAWLLNRCDNWRGAFRLNGDTSATVHFYIDNRPVEVRLHTEGANYHKIFFSVWDHEGSFAVGSGPVTSKHRDQRSIVNGFTFLFENGMRHTVLAVATEGDVTIIGSFGLHQIRLLPLTDGFGDASMAGGTSAKIVSPMPGKVSKFLVNSGDFVEKGQALMIVEAMKMEHPVKALQDGQVSFLVKEGEVVGSDHVLATVVQKE,not soluble
10,GPGSMLTLRKQTLPVATATLLLQRRGVEYWGSSVTGRTQPYAQGDLIPRVDNMRHVVSKSSSAAANLTGSNLGVAYDSDTIFSVAGYSRAEKEHYRPLRGIARYKIEPMAESDTVAAQGLLEQAEMSKSISFVVSWWGGVLKDFPSLKKVCDDTFKEEFTSFYKSALSVAHDDAAVKALAVPFVRRQMQEHYISFPMFWRIAEKLADAIEKVPQMQKPARSVSRIAVERVTKIALNTIADEPWALDEMTSPLLFDVSNFRAWHEAGNW,not soluble
11,GPGSMLVSYLRLQADRRTRHHMMVDGQINPREWFNWHPKEYQPWYFDRHKFLYEQRQYAQFHHLLCHQVYLKDMLHLMRYPEPYTHIIDCRTSTQKMHRWVPHSLWLPRDEVEYALQLSADEFLDMYGFRKPDKSDDVILLSHNGIYSEQAGWEWKKQFFQHVYNYRGGTNELFGESYSDMNVSDVLSPWKGPFPQSGVFVDKWSKRKVLTRTGPFDRQYEMQDFALPDLELEKARHPEEGPRQNMPFGLQ,not soluble
12,GPGSMMASFTPLDNFKSRSRGVMPTGIVIDKSCRVYVTQIPLERIERDGASAMKSEFEVYGPLESYKMFTDRSGRFIGSALCTYRNPADASMAVYCMDGVEVEGSTLHVEPAKEHGVVLLASGSSSGGNGQHRDHSRGFLRDTQRQWGRGGRGGAGLLGAGRGSGYSTTGREDASNTSELDLCAEELGLAATDGVSPSAANGKWSHDKYEMMAEGKDMDEVLG,not soluble
13,GPGSMMLQPWLRRGSGATQKYVNGEFKDVPQGDALLVCVPEAHTWFSLHKMLCDPECRRRYPYTQSKKELILRIRRFLNDTLVDQIPALASVQRALEELSFMQPPSDTEAKFKSSLTIEQVPRIMAAVEASRTHSWEDVANTFAAMLKDPRIKNEDAMRMARIFDEMFAENERPK,not soluble
14,GPGSMNPSAAAYIPQQSDAKGDPKSSSAAAVAKPPSTQPATKLSAAAEPFVPGGPKQMSATSTHVDPKATTEDEKTTAPLLMECPASSLPDSAAAAGAAKKEADENDDSQLDWLPEAQPTDWSESKLPKLFGCHNTAAKATSSAIPLHASWDLYADDHQGSSNMASNSSPTSTMSFEPIFVSNVGDVESFWRLWRYLPAPSALPTVYTYSWFRKDIKPEWEHPRNKKGGTISIVVFDRDRSGLSDKQVLDDVFMAMLVGAVGESFHECSTTLNGIMLKVRSNKPVTLQLWTAHSEVGKLKAFANSVRDTLTKIMGAKTLQKLEYYSHHQKQAATNSLAARMKGKTKISPDHTF,soluble
15,GPGSMPATEMQSMEMDTVQSMYDSYELISVDPPTYSVLLTATADDPPELRVTIVYDSEGYPETAAPTVRLEHIAKHRRMQTAALAKEIEDLCAEQIGMHSVISVLQKAQEYLTDYAAMEEKAELQRRGDALTKAAASVSTAAPDPTVRIGTAVTRELFAEWSEKHIAEKLQKRVLSEKKSTKLTGRQLWDGTLKNADWDLFEALEDEQDVDLYTLANGEGEEADEVEYDLDDPAEEG,soluble
16,GPGSMPHGISYYEFPWPDMTAPQQDIVLRSVQVMDYHIKQKGKVLVHCHAGLGRTGLMIACYYVYSQHIPSDEAIALVRKMRPGAIQTTRQAQFIADFEKHLWRLSQAFRVEISDALIDLNLFIQRQRLVLHGEQADLYKSVPLFLHTILCRLLNLTKDNPEAARLALQSLGPSAAPTDTTLSACRIAINRRRFRVQSVRDVSILSFLVCDWFRSTSSPALTEENCDQIVESMRASISKQEGLPLEIRRILSKPARHTLGMVISAFFIISRQVGCVSLTNFAFRCVVDSFNHAFNPIKVRHSPLERELIHKFFLEWGESVGDLYFNYDTVPAAHRTIKRIALASSIVLEATKNTDPPRRSSPSVRTLSVPSSTPEMSSNPAKQTGAPDSALVFSTQSRASHLFDMPLAVETDSESKTRLWRQHLIEYRRDTDGRRGRGERQRPPASSADAKVKR,not soluble
17,GPGSMPRGSSKSKKEVSEEPKTTGGSGGDATETSPPTPKAKKGKGGDKMLVNEPNDEKHTVEDARTVQTPSDHETSAARKKPPPKDVKDEKKSEPAHGGGRLLKNNPNDEVVPVEGMHNVATPRSGLITTESDGAKGTMLRNAPHDEAIPVSGHAITMDTPKRTIDVHPGTITNTDDDDDPKSTEEEESVPIGRTRGYCNPRPEAINLEAEVPETTAPNLGYKPQEYAMVNANASREVQELFKRILDYQPQTPELPAKLRPFIPDYVPSIGDLDPFCKIPRPDGKPDGLGIYVLDEPSVAQSNPAVVLLELRATNIHSVGGLAEAVDSFEDAANRPEVIDRWINDVKKVHYKKPLPTINYQKPMPEIDLLLQVWPQEFEEFLNSDVQFPPPQIDLDLDQYVRALCCILDIPTYTSLIDSLHVMFTLYQEFRANQHFQHE,soluble
18,GPGSMQKENDRMRKKKDEAREEEEISIFHCDDGSVYEGRVTRREIPVELPLGMPTPAPASTLRGQPPPEVMPQIVPIQHGKGIFKDAGGTIYDGNWIEGAMCGEGVLQFPSGATYTGGMRANEFCGTGTYNWPDGSRYEGQWENNRMHGFGVYVDAQGGRWAGKFYRGCGVGLLGEIHL,soluble
